The values below come from patent US20230072640A1 (VANDERBILT UNIVERSITY, published 2023).

A value given as a limit tells only on which side of the number the result lay.

For this assay, the target named is E protein of YFV-17D virus (Yellow fever virus strain 17D, UniProt P03314 286-778). The assay can be described thus: cell-based or functional assay.
E protein of YFV-17D virus, sequence (P03314 286-778 limits assumed): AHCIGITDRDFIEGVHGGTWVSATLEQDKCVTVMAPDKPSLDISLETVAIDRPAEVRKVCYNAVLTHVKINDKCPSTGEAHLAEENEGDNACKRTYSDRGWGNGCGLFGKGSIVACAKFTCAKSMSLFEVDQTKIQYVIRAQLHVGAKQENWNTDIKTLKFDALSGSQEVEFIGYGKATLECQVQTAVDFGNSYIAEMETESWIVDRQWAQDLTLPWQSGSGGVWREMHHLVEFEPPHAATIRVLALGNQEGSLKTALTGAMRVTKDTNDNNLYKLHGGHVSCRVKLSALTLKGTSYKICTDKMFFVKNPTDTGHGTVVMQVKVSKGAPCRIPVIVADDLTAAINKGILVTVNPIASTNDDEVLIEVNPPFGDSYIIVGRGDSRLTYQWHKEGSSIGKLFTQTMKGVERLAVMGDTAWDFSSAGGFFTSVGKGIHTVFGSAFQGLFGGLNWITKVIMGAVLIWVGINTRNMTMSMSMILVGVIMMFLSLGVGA

B1: human monoclonal antibody YFV-136 (antibody, V domains shown)
VH: QVQLQESGPGLVKPSGTLSLTCAVSGGSISSSNWWSWVRQPPGKGLEWIGDIYHSGSTSYNPSLKSRVTISVDRSKNQFSLKLSSVTAADTAVYYCARAPLVNWYYFDYWGQGTLVTVSS
VL: QSVLTQPPSVSAAPGQKVTISCSGSSSNIGNNYVSWYQQLPGTAPKLLIYDNNKGPSGIPDRFSGSKSGTSATLGITGLQTGDEADYYCGTWDTSLSAGRVFGGGTKLTVL
As to B1, the “IC50, focus reduction neutralization test (FRNT) of YFV-17D in Vero cells” value is under 10 ng/mL.
